Consider three molecules from paper PMC5856776 (2018).

The labels stand for the following.
B1: rCnm N1+2 (domain or fragment)
chain: SDVSNNVSSLTVSPTQINDGGKTTVRFEFDEHAQNIKAGDTITVNWQNSGTVRGTGYTKTIKLEVQGKYVGDLVVTQDKAVVTFNDSITGLQNITGWGEFEIEGRNFTDTTTGNTGSFQVTSGGKTSEVTVVKSASGTTGVFYYKTGDMQTDDTNHVRWFLNINNENAYVDSDIRIEDDIQSGQTLDIDSFDITVNGSESYRGQEGINQLAQRYGATISADSASGHISVYIPQGYASLNSFSIMYLTKVDNPDQKTFENNSKAWYKENGKDAVDGKEFNHSVANVNAAGGVDGR
B2: full-length recombinant Cnm (rCnm-FL) (domain or fragment)
chain: ASDVSNNVSSLTVSPTQINDGGKTTVRFEFDEHAQNIKAGDTITVNWQNSGTVRGTGYTKTIKLEVQGKYVGDLVVTQDKAVVTFNDSITGLQNITGWGEFEIEGRNFTDTTTGNTGSFQVTSGGKTSEVTVVKSASGTTGVFYYKTGDMQTDDTNHVRWFLNINNENAYVDSDIRIEDDIQSGQTLDIDSFDITVNGSESYRGQEGINQLAQRYGATISADSASGHISVYIPQGYASLNSFSIMYLTKVDNPDQKTFENNSKAWYKENGKDAVDGKEFNHSVANVNAAGGVDGRTTTTTEKPTTTTEAPTTTEAPTTTEAPTTTETPTTTEAPTTTEAPTTTEAPTTTEAPTTTETPTTTEAPTTTEAPTTTEAPTTTEAPTTTEAPTTTEAPTTTEAPTTTEASSETTKAEEKTTEVKEPEKTTTTAPAGKT
B3: rCnm N2 (domain or fragment)
chain: ASGTTGVFYYKTGDMQTDDTNHVRWFLNINNENAYVDSDIRIEDDIQSGQTLDIDSFDITVNGSESYRGQEGINQLAQRYGATISADSASGHISVYIPQGYASLNSFSIMYLTKVDNPDQKTFENNSKAWYKENGKDAVDGKEFNHSVANVNAAGGVDGR

By koff is commonly meant the first-order rate constant of dissociation. Read a low koff as a long-lived complex. As usually defined, the Kd is the concentration at which binding is half-saturated. Lower therefore signals tighter binding.

One test deals with T1, type I collagen (BD-Biosciences) (UniProt P02454 152-1207; P02466 86-1125). The test is described as follows: SPR. (In SPR one partner is held on a chip, and binding of the other changes the refractive index at the surface.)
T1 sequence (P02454 152-1207, chain 1 of 2): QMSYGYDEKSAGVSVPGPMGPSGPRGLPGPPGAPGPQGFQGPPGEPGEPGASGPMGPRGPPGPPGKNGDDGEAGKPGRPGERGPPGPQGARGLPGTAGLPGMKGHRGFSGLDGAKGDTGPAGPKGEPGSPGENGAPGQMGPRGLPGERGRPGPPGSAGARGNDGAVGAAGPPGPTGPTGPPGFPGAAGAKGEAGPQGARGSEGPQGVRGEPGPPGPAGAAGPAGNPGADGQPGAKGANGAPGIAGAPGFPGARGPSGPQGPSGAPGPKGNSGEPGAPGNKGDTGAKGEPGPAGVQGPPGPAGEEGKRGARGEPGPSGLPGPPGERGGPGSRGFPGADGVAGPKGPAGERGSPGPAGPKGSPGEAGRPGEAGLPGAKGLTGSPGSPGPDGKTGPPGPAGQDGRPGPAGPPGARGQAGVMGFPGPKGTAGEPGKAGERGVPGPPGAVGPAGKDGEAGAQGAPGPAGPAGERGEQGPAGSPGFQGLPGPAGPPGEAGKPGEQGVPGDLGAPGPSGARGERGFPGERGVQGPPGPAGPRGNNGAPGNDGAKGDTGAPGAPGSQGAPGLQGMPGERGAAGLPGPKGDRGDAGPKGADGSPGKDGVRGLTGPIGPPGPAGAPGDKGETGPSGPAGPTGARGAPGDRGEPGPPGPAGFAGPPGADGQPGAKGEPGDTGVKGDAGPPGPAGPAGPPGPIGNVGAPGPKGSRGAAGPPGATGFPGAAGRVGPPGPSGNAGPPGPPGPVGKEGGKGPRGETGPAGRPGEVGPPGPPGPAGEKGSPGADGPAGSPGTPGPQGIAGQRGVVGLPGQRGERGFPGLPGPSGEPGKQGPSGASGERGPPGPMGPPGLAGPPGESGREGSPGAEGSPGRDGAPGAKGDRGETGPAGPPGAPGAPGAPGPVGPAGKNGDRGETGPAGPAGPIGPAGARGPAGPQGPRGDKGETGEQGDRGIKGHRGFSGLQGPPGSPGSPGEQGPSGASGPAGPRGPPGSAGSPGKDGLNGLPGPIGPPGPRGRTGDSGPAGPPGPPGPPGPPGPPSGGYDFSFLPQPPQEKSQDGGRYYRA
T1 sequence (P02466 86-1125, chain 2 of 2): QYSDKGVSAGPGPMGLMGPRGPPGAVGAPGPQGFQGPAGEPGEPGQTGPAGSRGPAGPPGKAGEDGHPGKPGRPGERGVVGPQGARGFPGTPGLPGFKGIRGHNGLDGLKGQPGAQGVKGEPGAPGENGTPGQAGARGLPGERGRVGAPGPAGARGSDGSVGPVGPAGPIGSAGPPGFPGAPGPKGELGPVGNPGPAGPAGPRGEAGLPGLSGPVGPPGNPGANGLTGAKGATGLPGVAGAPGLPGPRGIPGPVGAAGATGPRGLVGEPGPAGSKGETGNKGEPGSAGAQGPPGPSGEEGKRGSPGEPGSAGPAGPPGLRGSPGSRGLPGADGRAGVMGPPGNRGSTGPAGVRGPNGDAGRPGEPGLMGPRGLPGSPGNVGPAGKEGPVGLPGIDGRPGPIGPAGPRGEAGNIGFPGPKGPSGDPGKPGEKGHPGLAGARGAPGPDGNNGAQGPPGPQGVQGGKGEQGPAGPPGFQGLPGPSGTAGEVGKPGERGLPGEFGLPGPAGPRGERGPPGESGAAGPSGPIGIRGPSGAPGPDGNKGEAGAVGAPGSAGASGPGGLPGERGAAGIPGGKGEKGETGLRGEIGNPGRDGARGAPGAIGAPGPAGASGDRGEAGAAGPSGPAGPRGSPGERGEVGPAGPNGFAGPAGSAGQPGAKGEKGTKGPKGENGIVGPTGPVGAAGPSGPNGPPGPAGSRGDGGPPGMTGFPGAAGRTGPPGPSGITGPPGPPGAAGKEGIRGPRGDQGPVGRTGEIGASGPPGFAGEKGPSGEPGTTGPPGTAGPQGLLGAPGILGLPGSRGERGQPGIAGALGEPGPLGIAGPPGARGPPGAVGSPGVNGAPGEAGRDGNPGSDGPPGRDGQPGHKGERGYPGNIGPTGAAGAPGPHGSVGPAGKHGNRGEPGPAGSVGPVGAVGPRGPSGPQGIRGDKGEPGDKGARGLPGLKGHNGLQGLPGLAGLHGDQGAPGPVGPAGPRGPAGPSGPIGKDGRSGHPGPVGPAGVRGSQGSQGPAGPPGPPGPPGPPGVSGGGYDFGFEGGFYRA
Molecule B1 had a koff of 0.0244 s⁻¹.
As for B2, the koff is 0.00198 s⁻¹.
Take B3: the koff stood at 0.000335 s⁻¹. This koff is about 5.9-fold lower than that of the molecule before.

Another test has as its target T1, type I collagen (BD-Biosciences). Put plainly: SPR. The source holds these as a separate data set.
Take B1: binding was characterised by a dissociation constant (Kd) of 817 nM.
The same measure, in the same setting: next, B2: 289 nM; B3: 4530 nM.

The target is the same in the next test. The test is described as follows: SPR. The source holds these as a separate data set.
In the case of B1, the Ka was 1.22e+06 M⁻¹.
The same measure, in the same setting: next, B2: 3.46e+06 M⁻¹; B3: 221000 M⁻¹.
